B1: Nrd1 CID [S. cerevisiae] / Sen1 NIM peptide, FAM-labelled [modified: 5,6-carboxyfluorescein (FAM) on the N-terminus; 5,6-carboxyfluorescein (FAM) on the N-terminus] [S. cerevisiae] (parent complex)
chain 1: MQQDDDFQNFVATLESFKDLKSGISGSRIKKLTTYALDHIDIESKIISLIIDYSRLCPDSHKLGSLYIIDSIGRAYLDETRSNSNSSSNKPGTCAHAINTLGEVIQELLSDAIAKSNQDHKEKIRMLLDIWDRSGLFQKSYLNAIRSKCFAMD
chain 2: DDDEDDYTPSIS

Variants of: B1
Test: fluorescence anisotropy (FA); parent: 1.2e+03 nM

Kd [µM] | Variant
7.38 | chain 1 MQQDDDFQNFVATLESFKDLKSGISGSRIKKLTTYALDHIDIESKIISLIIDYSRLCPDSHKLGSLYIIDSIGRAYLDETRSNSNSSSNKPGTCAHAINTLGEVIQELLSDAIAKSNQDHKEKIRMLLDAWDRSGLFQKSYLNAIRSKCFAMD [chain 1 I130A]

Reference: publication PMC7110113, “Termination of non‐coding transcription in yeast relies on both an RNA Pol II CTD interaction domain and a CTD‐mimicking region in Sen1” (The EMBO Journal, 2020)
